Reference: the nanobody polyreactivity screen of Harvey et al. (2022)

Assay: yeast display, Sf9 membrane polyspecificity reagent, FACS + sequencing; frameworks hold sequencing errors
Method in brief: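 A synthetic nanobody library was expressed on Saccharomyces cerevisiae BJ5465 by galactose induction for 36–48 hours. The library was stained for 1 hour at 4 °C with 10% biotinylated, detergent-solubilized Sf9 membrane reagent and enriched with streptavidin microbeads before FACS. Low and high (top ~1%) gates were set on anti-HA fluorescence for expression and streptavidin fluorescence for reagent binding, and each polyreactivity label reflects the gate of origin.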

Row | Sequence | polyreactivity (PSR sort gate)
1 | QVQLVESGGGVVQAGGTLRLSCAASGSTFPKYAMGWYRQAPGKERELVAAISLSGVRTYYADSVKGRFTISRDNAKNTVYLQMTSLKPEDTAVYYCNAVFDRYPYRYDYWGQGTQVTVSS | high polyreactivity
2 | QVQLVESGGGVVQPGGSLSLSCAGSGITFWYYDLVWSRQAPGKERELVATITSSGSTYYADSVKGRFTISRDNAKNTVYLQKNSLKPEDTAVYFCAPQYGYSYYSGRYGYWGQGTQVTVSS | high polyreactivity
3 | QVQLVESGGGVVQSGGSLRLSCAASGRTFNHYAMGWYRQAPGKERELVAGITISGGSTYYADSVKGRFTISRDNAKNTVYLQMNSLKPEDTAVYYCNAVYDYYRQSKWTMDYWGQGTQVTVSS | low polyreactivity
4 | QVQLVESGGLIVQAGGSLRLSCAASRSTSRYSMGWYRQAPGKERELDAAITRSCGTTYYADSVKGRFTISRDNAKNSVYLQMNSLKPEDTAVYYCATSDRQVKDDYWGQGTQVTVSS | low polyreactivity
5 | QVQLVESGGRIVQAGGSLRLRCAASGSTFRWYAMGRYRQAPGKERQLVASITWSGGGTYYADSVKGRFTISRDNAKNTVYLQMNSLKPEDTAVYYCNRRTWRYETRGDDYWGQGTQVTVSS | high polyreactivity
6 | QVQLVESGGRIVQAGGSLRLSCAASGRIFWLNAMGRYRQAPGKEREFVASITYGSDSTYYADSVKGRFTISRDTATNTVYFQMNSLKPEDTAVYYCNREGWHYGPYGYWGQGTQVTVSS | low polyreactivity
7 | QVQLVESGGRIVQAGRSLRLTCAASGRTFRNYAMGWYRQAPGKEREFVAAITSRSSRTYYADSVKGRFTISRDNEKNTVYLQMNSLIPEDTAVYYCARGSELGYYAWVYYWGQGTQVTVSS | high polyreactivity
8 | QVQLVESGGRLDQAGGSLRLSCAASGSILSTYAMGWYRQPPVKERELVASISSNAGSTYYADSVKGRFTISLDNAKNTVSLQMNSLKPEDTAVYYCNKVYGGGTYDYWGQGTQVTVSS | low polyreactivity
9 | QVQLVESGGRLFQAGGSLRLSCAASRSIFSTYGKGWYRQPPGKERELVAAITSGVGRTNYADSVKGRFTISRDNAKNTVDLQMNSLKPEDTAVNYCAVRSLGTLDVYDLATEYDYWGQGTQVTVSS | low polyreactivity
10 | QVQLVESGGRLLQAGGSLRLSCAASGIIFVYYDMGWYRQAPGKERELVAVITESGVSTYYADSVKGRFTISRDNAKKTVYLQMNSLKPEDTAVYYCDTSVDRGLGYWGQGTQVTVSS | low polyreactivity
11 | QVQLVESGGRLLQAGGSLRLSCAASGSTISHYAMGWYRQAPGKEWELVATITVTGVRTYYADSVKGRFTISRDNAKNTVYLELNSLKPEDTAVYYCAVRPSTRGAQAQPWMYYWGQGTQVTVSS | low polyreactivity
12 | QVQLVESGGRLVQAGGILRLSCAASGRIFNRYAMGWSRQAPGKEREFVARITGSGGRTYYADSVKGRFTISRDNAKNTVYLQMNSLKPEDTAVYYCARDRGYQSGYDFWGQGSQVTVSS | high polyreactivity
13 | QVQLVESGGRLVQAGGILRLSCPASGSTFKKYAMGWYRQTPGKERELVASINSSAGSTYYADSVKGRFTISRDNAKNTVYLQMNSLKPEDTAVYYCATCQKVYSGRYDYWGQGTQVTVSS | low polyreactivity
14 | QVQLVESGGRLVQAGGSLPLSCAASGFIFRYYAMGWYRQAPGKERELVAAIDYSGGSTNYADSVKGRFTISRDNAKNTVYLQMNSLKPEDTAVYYCNAEYTWHRGYDYWGQGTQVTVSS | low polyreactivity
15 | QVQLVESGGRLVQAGGSLRISCAASGNTFVRYAMGWYRQAPGKQSELVASISTSGGSTYYADSVKGRFTISRDNAKNTVYLQMNSLKPQDTAVYYCAARLPRTRYWEDFWGQGTQVSVSS | high polyreactivity
16 | QVQLVESGGRLVQAGGSLRLICAASGSICTHNAMGWYRQAPGKERELVADITSSVSSTYYADSVKGRFTISRDNSKNTVDLQMNSLKPEDTSVYYCAGGVGRGMYYWGQGTQVTVSS | low polyreactivity
17 | QVQLVESGGRLVQAGGSLRLICAASGSTFYPYAMGWYRQAPGKERELSTDADSVKGRFTISRDNAKNSVYLQMNSLKPEDTAVYYCAALHWRWYDYWGQGTQVTVSS | low polyreactivity
